# Test system: GhHDA6
# Assay: Yeast two hybrid with GhHDA6
# Assay type: binding, cotton
# Description: The study on Arabidopsis had shown that the inhibition of JAZ protein on JA signaling was mainly achieved by inhibiting the transcription factor function of MYC, which had been experimentally verified by us in cotton. Based on the phylogenetic tree of Arabidopsis and cotton JAZs, we screened 6 cotton JAZs (GhJAZ1, GhJAZ7, GhJAZ9, GhJAZ10, GhJAZ11 and GhJAZ31), which were analyzed with GhMYC2, GhNINJA, GhTPL, GhHDA6, and GhCOI1 for yeast two hybrid. The amino acid sequence of GhJAZ1 was set forth in SEQ ID No. 4, and the corresponding encoding gene sequence was set forth in SEQ ID No. 39; the amino acid sequence of GhJAZ7 was set forth in SEQ ID No. 7, and the corresponding encoding gene sequence was set forth in SEQ ID No. 42; the amino acid sequence of GhJAZ9 was set forth in SEQ ID No. 2, and the corresponding encoding gene sequence was set forth in SEQ ID No. 37; the amino acid sequence of GhJAZ10 was set forth in SEQ ID No. 3, and the corresponding encoding gene sequence was set forth in SEQ ID No. 38; the amino acid sequence of GhJAZ11 was set forth in SEQ ID No. 5, and the corresponding encoding gene sequence was set forth in SEQ ID No. 40; and the amino acid sequence of GhJAZ31 was set forth in SEQ ID No. 9, and the corresponding encoding gene sequence was set forth in SEQ ID No. 44. […]
# Chain of GhHDA6 (as listed by the source): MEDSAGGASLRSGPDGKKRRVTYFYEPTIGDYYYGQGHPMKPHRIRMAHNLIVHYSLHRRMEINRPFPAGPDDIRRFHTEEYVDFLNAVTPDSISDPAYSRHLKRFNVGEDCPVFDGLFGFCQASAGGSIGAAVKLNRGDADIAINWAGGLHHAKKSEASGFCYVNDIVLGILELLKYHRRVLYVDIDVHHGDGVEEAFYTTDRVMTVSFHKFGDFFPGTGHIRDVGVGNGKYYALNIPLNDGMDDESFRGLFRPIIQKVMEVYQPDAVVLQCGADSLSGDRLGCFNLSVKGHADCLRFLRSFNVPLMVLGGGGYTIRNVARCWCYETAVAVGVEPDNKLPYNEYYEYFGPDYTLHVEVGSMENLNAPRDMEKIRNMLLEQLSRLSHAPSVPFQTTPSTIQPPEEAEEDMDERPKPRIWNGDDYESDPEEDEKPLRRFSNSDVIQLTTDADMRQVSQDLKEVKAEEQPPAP
row,Molecule,interaction with GhHDA6
1,"GhJAZ1 after deletion of NT domain: GhJAZ1 mutant with NT domain deleted, protein sequence SEQ ID No. 83 (protein) MSSCSESTAMKPARSPEANGTPVVPPPTMNLFPLNDKSDDVCGRNGGNPKNLTSMDLFPQQAGLASKDDSPNKLEPQTAPMTIFYGGQVIVFNDFPANKAKEIMLLASNSSSQSNNSFNPIPFTSSIARSPIESSIGVPPTSKPVHPAQRAVPGDLPIARRASLHRFLEKRKDRITAKAPYQINNSAAAPSLSGDNKSWLGLAAQSP",significantly weakened
2,"GhJAZ1: cotton JAZ1 protein, gene number Gh_A05G0260, sequence SEQ ID No. 4; prokaryotically expressed with His tag, about 30 KD (protein, His tag, prokaryotically expressed with His tag, about 30 KD) MSSCSESTAMKPARSPEKPSFAQTCNLLSQYLKEKGSFGDLSLGMTCNVEANGTPVVPPPTMNLFPLNDKSDDVCGRNGGNPKNLTSMDLFPQQAGLASKDDSPNKLEPQTAPMTIFYGGQVIVFNDFPANKAKEIMLLASNSSSQSNNSFNPIPFTSSIARSPIESSIGVPPTSKPVHPAQRAVPGDLPIARRASLHRFLEKRKDRITAKAPYQINNSAAAPSLSGDNKSWLGLAAQSP",interacted

# Reference: patent US20240279288A1, “APPLICATION OF PLANT JAZ PROTEINS AND DERIVED POLYPEPTIDES IN PREVENTION AND TREATMENT OF HUMAN AND ANIMAL TUMORS” (ANYANG INSTITUTE OF SINO-COTTON INDUSTRY INNOVATION, priority 2021, published 2024)
